Series [1] addresses RAGE (full-length, recombinant) (UniProt Q62151 1-402). Nature of the series: EMSA.
Series [2] addresses RAGE (full-length, recombinant);MRE11 (Mus musculus?;, UniProt Q62151;P49959 1-402;1-708, |). Nature of the series: EMSA.

The values that follow come from publication PMC5737477.

Chain of RAGE (full-length, recombinant);MRE11 (Q62151 whole entry, chain 1 of 2): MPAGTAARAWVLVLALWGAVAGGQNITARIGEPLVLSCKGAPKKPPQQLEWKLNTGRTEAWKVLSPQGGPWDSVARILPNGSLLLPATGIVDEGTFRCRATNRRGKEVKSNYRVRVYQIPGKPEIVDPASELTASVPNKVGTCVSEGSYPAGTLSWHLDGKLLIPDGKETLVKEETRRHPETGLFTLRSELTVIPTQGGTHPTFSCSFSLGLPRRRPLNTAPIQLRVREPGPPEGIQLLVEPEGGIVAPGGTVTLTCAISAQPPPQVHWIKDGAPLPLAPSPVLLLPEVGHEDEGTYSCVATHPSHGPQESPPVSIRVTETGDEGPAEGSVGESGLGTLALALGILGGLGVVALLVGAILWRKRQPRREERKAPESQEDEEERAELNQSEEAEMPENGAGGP
Chain of RAGE (full-length, recombinant);MRE11 (P49959 whole entry, chain 2 of 2): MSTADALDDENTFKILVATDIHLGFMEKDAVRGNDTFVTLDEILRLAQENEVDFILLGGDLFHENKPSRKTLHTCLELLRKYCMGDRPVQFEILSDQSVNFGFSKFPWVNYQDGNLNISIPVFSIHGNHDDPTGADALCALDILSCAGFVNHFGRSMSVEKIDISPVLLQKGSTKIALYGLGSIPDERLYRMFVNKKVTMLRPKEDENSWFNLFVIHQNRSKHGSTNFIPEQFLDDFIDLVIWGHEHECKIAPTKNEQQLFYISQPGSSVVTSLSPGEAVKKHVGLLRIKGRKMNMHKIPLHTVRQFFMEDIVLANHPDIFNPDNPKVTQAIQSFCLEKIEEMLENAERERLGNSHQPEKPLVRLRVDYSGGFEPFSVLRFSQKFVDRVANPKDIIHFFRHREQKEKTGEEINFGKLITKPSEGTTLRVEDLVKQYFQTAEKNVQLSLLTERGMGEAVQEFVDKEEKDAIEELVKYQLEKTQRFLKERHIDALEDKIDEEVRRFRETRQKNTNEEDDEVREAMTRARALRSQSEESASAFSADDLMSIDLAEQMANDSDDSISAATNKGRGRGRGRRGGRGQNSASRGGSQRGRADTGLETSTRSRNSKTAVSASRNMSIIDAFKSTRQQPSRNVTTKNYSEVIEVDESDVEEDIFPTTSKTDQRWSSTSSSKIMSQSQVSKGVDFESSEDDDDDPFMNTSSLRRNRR
Chain of RAGE (full-length, recombinant) (Q62151 whole entry): as the sequence (Q62151 whole entry, chain 1 of 2) above

B1: RAGE EM-F/EM-R 64mer dsDNA probe (dsDNA)
DNA 1: GGACTCCAGGTCCAGGACCGCCGTTTTTCGCGCGCACGGCGCGGGAGGTCCAGCTGGTCCACCTCC
DNA 2: GGAGGTGGACCAGCTGGACCTCCCGCGCCGTGCGCGCGAAAAACGGCGGTCCTGGACCTGGAGTCC
In the case of B1, the binding result in series [1] and in series [2] was “binds” each time.
